From PMC3001090

Biological target: T1, Rv1495 (MazF homolog) (Mycobacterium tuberculosis, UniProt P9WII5 1-105)
T1 sequence: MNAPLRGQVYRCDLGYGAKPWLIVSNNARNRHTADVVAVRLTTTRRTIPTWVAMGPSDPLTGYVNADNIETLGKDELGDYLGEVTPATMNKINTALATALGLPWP
Experiment: EMSA

CAGTGAGCGAGCTTCCGCTTGACATCCCAATA (ssDNA) [32-mer TopA substrate oligonucleotide]
binding result: no binding
